We go through four molecules from paper PMC9048679, “Correlation Between Improved Mating Efficiency and Weakened Scaffold-Kinase Interaction in the Mating Pheromone Response Pathway Revealed by Interspecies Complementation” (Frontiers in Microbiology, 2022).

Common to all, as to experiment: two-hybrid; Matchmaker GAL4 system; Ste5 forms on Gal4-AD (pGADT7, AH109), Ste7 orthologs on Gal4-BD (pGBKT7, Y187), diploids on SC-Leu-Trp; quantitative β-galactosidase assay of cell lysate with ONPG; units of the same BD-Ste7 with void pGADT7 subtracted; mean of three colonies
Test [1] deals with KlSte7 (Ste7 of Kluyveromyces lactis), Gal4-BD fusion (K. lactis) (UniProt Q6CSZ8).
Test [2] addresses KmSte7 (Ste7 of Kluyveromyces marxianus), Gal4-BD fusion (K. marxianus).
Test [3] deals with T1, KlSte7 (Ste7 of Kluyveromyces lactis), Gal4-BD fusion (K. lactis, UniProt Q6CSZ8 1-504).
T1 construct: Ste7 (MAPKK) of Kluyveromyces lactis, KEGG KLLA0_C16577g; ORF cloned into the EcoRI site of pGBKT7; source: yeast two-hybrid fusion (pGBKT7, transformed into Y187, diploid with AH109)
T1 sequence (looked up): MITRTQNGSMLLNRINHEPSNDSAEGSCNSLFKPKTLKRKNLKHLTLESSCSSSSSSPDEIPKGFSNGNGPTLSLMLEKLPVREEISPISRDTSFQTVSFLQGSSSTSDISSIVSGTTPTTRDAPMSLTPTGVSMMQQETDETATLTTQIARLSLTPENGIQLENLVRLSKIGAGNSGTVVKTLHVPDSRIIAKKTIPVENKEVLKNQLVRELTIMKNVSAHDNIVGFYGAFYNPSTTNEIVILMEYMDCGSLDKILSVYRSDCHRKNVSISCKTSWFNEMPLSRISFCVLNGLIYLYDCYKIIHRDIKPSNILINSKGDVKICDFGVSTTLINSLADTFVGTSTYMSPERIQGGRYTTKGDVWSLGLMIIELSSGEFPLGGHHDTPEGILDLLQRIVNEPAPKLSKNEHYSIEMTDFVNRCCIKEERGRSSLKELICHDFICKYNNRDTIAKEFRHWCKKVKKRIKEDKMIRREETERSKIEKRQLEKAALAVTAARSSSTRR
The following applies: partners not purified.

Test [4] has as its target T2, KmSte7 (Ste7 of Kluyveromyces marxianus), Gal4-BD fusion (K. marxianus, UniProt A0ABX6F0V6 1-494).
T2 construct: Ste7 (MAPKK) of Kluyveromyces marxianus, KEGG KLMA_70246; ORF cloned into the EcoRI site of pGBKT7; source: yeast two-hybrid fusion (pGBKT7, transformed into Y187, diploid with AH109)
T2 sequence (looked up): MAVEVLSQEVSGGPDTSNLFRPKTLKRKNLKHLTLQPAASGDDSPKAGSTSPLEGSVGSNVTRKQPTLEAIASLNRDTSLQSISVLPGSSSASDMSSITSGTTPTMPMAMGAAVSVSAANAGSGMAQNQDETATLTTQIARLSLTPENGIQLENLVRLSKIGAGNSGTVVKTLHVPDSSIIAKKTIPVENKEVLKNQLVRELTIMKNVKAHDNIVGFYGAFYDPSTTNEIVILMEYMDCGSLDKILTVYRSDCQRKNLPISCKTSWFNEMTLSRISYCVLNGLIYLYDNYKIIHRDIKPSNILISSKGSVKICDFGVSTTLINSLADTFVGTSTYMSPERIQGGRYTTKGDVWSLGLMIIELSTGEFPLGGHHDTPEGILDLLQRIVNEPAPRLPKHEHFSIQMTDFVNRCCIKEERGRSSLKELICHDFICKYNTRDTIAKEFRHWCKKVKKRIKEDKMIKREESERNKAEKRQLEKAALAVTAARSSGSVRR
The note with it: partners not purified.

“KlSte5-KmBD (KlSte5 with its Ste7-binding region replaced by that of KmSte5), Gal4-AD fusion (from UniProt A0ABX6ETE1 660-763)”: the figures for the strength of the interaction (units of β-galactosidase) (units of β-galactosidase) in test [1] and in test [2] were 20.3 and 11, respectively.

In the case of “KmSte5-KlBD (KmSte5 with its Ste7-binding region replaced by that of KlSte5), Gal4-AD fusion (from UniProt A0ABX6ETE1 1-659)”, the results for the strength of the interaction (units of β-galactosidase) (units of β-galactosidase) in test [1] and in test [2] were 31.8 and 14.9, respectively.

B1: KlSte5 (Ste5 of Kluyveromyces lactis), Gal4-AD fusion (natural protein, K. lactis, UniProt Q6CKB4 1-746, looked up)
chain: MSRGNTSSMNSQDILFQLTNVGSSPVPKLDTGSTSGSNTSSPRRWTELFSKKRVKTPSVGTPSTASSMISSFYDSSPIRPVSKQHPKHLLVDPIMPPPPIMLSPIGHETLGKKPTRKNGNKSWKNERCCICGDLCSFKGSNEKVIPLECNHMCHEDCLMVSLRPLPHKSNLYDALPKCDICSMSCIPGQEDMRQKVRSHLLTLPDDGESVGLEPYNPQENYERIKLCDADLLPKHSGNDETFPHLQTTRTTARNNDIRLSFAFSLKPGKTVTPSLRDSIRLHRSRSIKRRSNFRGSTVSGLSSIVSSSSKDDCQLPSLHVQRQYFIQAFLNSFSEVKPWEIDAKYGLLRLIDNFLISLDGINFQHQVCYLFSEYLLVCRPSPATSANVLQFSSYRCFQLNNPPELDLLDATTLESKSRSGERILIKPYGLDTKALEKWITALFDLTLPFGNYDFTSIKVPEFVACIPSTNDTGTIIVRRQSTLNETLIPKTIRDSSVLTSISSILSIKRATPNELNLVLQLDKRKTNEDNIVSIKNVILALTWKFSTFNCCIVDVEGMVINCGTANDVLNSLAGPIKSNGNQPFSPDLLHQLWYRQKQKICKNVGVVVLSNSSMENGKSCLFSDYRIFADAGKRHPNELKIKVGFLNVDYSDNIKELVEIQDWNELLEAVAYSFNLSFDDDLDSSDCVSTSSSDFEVDSVPDKNRTFRLSSPISWENHVQADLTGSMNGISESIEDRQSNHMYDYL
notes: Ste5 of Kluyveromyces lactis, KEGG KLLA0_F12023g; probably the whole ORF; source: yeast two-hybrid fusion (pGADT7, transformed into AH109, diploid with Y187)
Turning to B1, the “strength of the interaction (units of β-galactosidase)” value in test [3] is 13.7 units of β-galactosidase; in test [4] it was 8.13 units of β-galactosidase.

B2: KmSte5 (Ste5 of Kluyveromyces marxianus), Gal4-AD fusion (natural protein, K. marxianus, UniProt A0ABX6ETE1 1-763, looked up)
chain: MNSQEILFQLTNVGSTPVSSKNDTMTTPTSGSNTSSPRRWTELFSKKRAKTPSISTPSTSSSAVSSLHDGSPVRPGSKQSFRHFNIDSALQYPPVMQSPESYHSAGNGNGSGHGNVQVGKKPHRRGGNKSWKNEKCCICRDLCSFKGSTERVIILQCNHMCHEDCLMVSLNPVSKTFDLYDALPKCQMCSMLCVPSQEDMKQRLRNHLLTVNSSSSDQLSSAIPQVQSQLKPHNSPENTRTGIGPLAPPPPPLSMRNAVKTTPTNRDIRLSFASSLKPPVFVTPSVRDSWRLPRASSIKRRSNNYRGSTISALSSITSSSSLYNDSQLVCSLHIQRQYFMQAFLTSFEEIKPWEIDSRYGLLRLIDYFLISLDDQGFKQCCCYLFSEYLLLCQPSSKASSNVLQFSSYRFLQLNSPANIELIDATTLELKAKTGERVRIKPFNSDTKSLEKWITAFFDPTLTFGNLDFTSIPLPDFVSAMPSADDSRTIIVRRQNTINETIVTAGPRDSTLFTSISSILSIKRSTPRELNVILQVDRRKLKSENLITIKNVLSALTWKYHDFNCCIVGVDGLIVKIGGAREILDSWAEISDAGTQPFSPALLYKTWYKERGKVCNNAGVLVISNASMETGKTCLFHDYRMFANVGKRHVNELKIKVGFLNVDYTNKIKELVEIQDWNELLEAVSYSFNINFDDDDDDDDDEGDSDTSDSFSVGSSEFNKSLNSDNERLVRPPSPTSFEDIEADSHSQFDDDSELQHSIIYDYL
notes: Ste5 of Kluyveromyces marxianus, KEGG KLMA_20171; probably the whole ORF; also called natural KmSte5; source: yeast two-hybrid fusion (pGADT7, transformed into AH109, diploid with Y187)
B2: the results for the “strength of the interaction (units of β-galactosidase)” value in test [3] and in test [4] were 30 units of β-galactosidase and 22.8 units of β-galactosidase, respectively.
